According to patent publication US8138307:

Columns and labels:
[1] = molecular target: GAL4 activation domain-hsyt11AB fusion encoded by pGAD10-hsyt11AB (human synaptotagmin 11, domains C2A and C2B) (human) (UniProt Q9BT88); experiment: yeast two-hybrid liquid assay (β-galactosidase, n=3)
[2] = molecular target: GFP-syt11 (GFP fusion of full-length human synaptotagmin XI) (human) [GFP: P42212]; experiment: co-immunoprecipitation with anti-HA agarose, anti-GFP blot

Chain of GAL4 activation domain-hsyt11AB fusion encoded by pGAD10-hsyt11AB (human synaptotagmin 11, domains C2A and C2B) (human) (Q9BT88 157-431 G231V): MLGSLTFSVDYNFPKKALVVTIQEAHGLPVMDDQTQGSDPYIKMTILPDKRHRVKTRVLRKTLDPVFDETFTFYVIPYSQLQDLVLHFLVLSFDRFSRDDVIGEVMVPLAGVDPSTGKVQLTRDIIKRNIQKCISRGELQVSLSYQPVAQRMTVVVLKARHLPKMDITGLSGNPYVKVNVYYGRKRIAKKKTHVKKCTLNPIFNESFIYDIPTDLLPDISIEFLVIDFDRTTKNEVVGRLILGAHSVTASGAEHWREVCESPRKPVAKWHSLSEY

Substance | fold β-galactosidase activity over pGBT9 vector control [1] [fold] | fold less interaction compared with parkinC418R [2] [fold less]
GAL4 binding domain-parkin(1-465) fusion encoded by pGBT9-parkin(1-465) (from UniProt P04386 1-147; O60260 1-465) | 20 | –
HA-tagged missense mutated parkin C289G (from UniProt O60260 1-465) (enzyme) | – | 2.5
